Results reported in US20260201064A1 (ISU ABXIS, published 2026).
Where two headings read alike, the source gives them in different places.

Assays:
[1] = target: T1, recombinant human ASM protein (human, UniProt P17405 47-630); assay: BLI (Octet), antibody on AHC sensor
T1 construct: Recombinant human ASM in solution; also called acid sphingomyelinase (ASM) protein
T1 sequence: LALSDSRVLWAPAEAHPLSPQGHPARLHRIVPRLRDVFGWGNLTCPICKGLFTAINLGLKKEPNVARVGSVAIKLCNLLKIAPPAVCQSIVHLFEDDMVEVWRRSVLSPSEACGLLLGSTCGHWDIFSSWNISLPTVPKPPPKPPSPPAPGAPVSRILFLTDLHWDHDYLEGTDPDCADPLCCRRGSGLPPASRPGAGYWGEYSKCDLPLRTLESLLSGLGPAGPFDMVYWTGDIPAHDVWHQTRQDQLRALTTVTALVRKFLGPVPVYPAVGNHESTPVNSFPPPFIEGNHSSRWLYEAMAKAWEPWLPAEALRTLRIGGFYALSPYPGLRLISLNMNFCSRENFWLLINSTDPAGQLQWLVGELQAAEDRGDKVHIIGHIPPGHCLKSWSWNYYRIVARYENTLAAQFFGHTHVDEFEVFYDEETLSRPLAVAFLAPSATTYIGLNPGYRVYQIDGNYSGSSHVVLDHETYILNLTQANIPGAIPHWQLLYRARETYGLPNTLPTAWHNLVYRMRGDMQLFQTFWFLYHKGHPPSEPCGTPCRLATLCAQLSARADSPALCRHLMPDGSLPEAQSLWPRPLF
Description: (§1) The binding affinity, to the ASM protein, of the produced antibodies specifically binding to the ASM protein and the interactive dynamics therebetween were measured using an Octet® QK384 system (Pall Life Sciences).
(§2) First, an antibody specifically binding to the ASM protein produced in Example 1 was captured using an anti-human IgG Fc capture (AHC) biosensor, and 1.25, 2.5, 5, 10, or 20 nM recombinant human ASM protein solution was added thereto. […] The association constant (Kₐ), dissociation constant (Kd), and equilibrium dissociation constant (KD) for each antibody were determined using Octet® analysis software (Pall Life® Sciences). As a result, the binding affinities, to the human ASM protein, of the antibodies with mutations in the heavy chain CDR regions of the antibody #9104 as depicted in Table 1 are shown in Table 5, and the binding affinities, to the human ASM protein, of the antibodies with mutations of the light chain CDR regions in the antibody #9104 as depicted in Table 2 are shown in Table 6.
After the small-scale expression in the ExpiCHO cell line as described above, the binding affinity to the human ASM protein was investigated as described in Experimental Example 1. Specifically, the antibody produced by a combination of #9104v-H33 heavy chain variable region and #9104v-L23 light chain variable region was not expressed and thus excluded in the analysis of binding affinity to ASM protein.

[2] = target: T1, recombinant human ASM protein; assay: BLI (Octet), antibody on AHC sensor; remark: listed apart in the source
Description: as §1, §2

Binder | Kd [1] | koff [1] | kon [1] | Kd [2] | koff [2] | kon [2]
#9104a-D6 (antibody, human IgG4 S228P, lambda, V domains shown, VH of #9104v-H27 with VL of #9104v-L64; full-length IgG, lambda) VH: EVQLLESGGGLVQPGGSLRLSCAASGFTFSNYYMSWVRQAPGKGLEWVSGTYYDSGYVYYADSVKGRFTISRDNSKNTLYLQMNSLRAEDTAVYYCARDTPGFDYWGQGTLVTVSS VL: QSVLTQPPSASGTPGQRVTISCTGSSSNIGNNAVNWYQQLPGTAPKLLIYYDYFSHSGVPDRFSGSKSGTSASLAISGLRSEDEADYYCGAWDYSLSAYVFGGGTKLTVLG | 1.07 nM | 8.7e-05 s⁻¹ | 81200 M⁻¹ s⁻¹ | – | – | –
#9104a-E2 (antibody, human IgG4 S228P, lambda, V domains shown, VH of #9104v-H11 with VL of #9104v-L65; full-length IgG, lambda) VH: EVQLLESGGGLVQPGGSLRLSCAASGFTFSNYYMSWVRQAPGKGLEWVSGIYYGSGIPYYADSVKERFTISRDNSKNTLYLQMNSLRAEDTAVYYCARDTPGFDYWGQGTLVTVSS VL: QSVLTQPPSASGTPGQRVTISCTGSSSNIGNNAVNWYQQLPGTAPKLLIYYDYYQSSGVPDRFSGSKSGTSASLAISGLRSEDEADYYCGAWDYSLSAYVFGGGTKLTVLG | 0.212 nM | 4.27e-05 s⁻¹ | 202000 M⁻¹ s⁻¹ | – | – | –
#9104v-L20 (antibody, human IgG4 S228P, lambda, V domains shown, Full-length IgG, lambda) VH: EVQLLESGGGLVQPGGSLRLSCAASGFTFSNYYMSWVRQAPGKGLEWVSGIYYGSGNIYYADSVKGRFTISRDNSKNTLYLQMNSLRAEDTAVYYCARDTPGFDYWGQGTLVTVSS VL: QSVLTQPPSASGTPGQRVTISCTGSSSNIGNNAVNWYQQLPGTAPKLLIYYDMFRPGGVPDRFSGSKSGTSASLAISGLRSEDEADYYCGAWDYSLSAYVFGGGTKLTVLG | – | – | – | 0.658 nM | 0.000162 s⁻¹ | 247000 M⁻¹ s⁻¹
#9104a-E3 (antibody, human IgG4 S228P, lambda, V domains shown, VH of #9104v-H13 with VL of #9104v-L65; full-length IgG, lambda) VH: EVQLLESGGGLVQPGGSLRLSCAASGFTFSNYYMSWVRQAPGKGLEWVSGIYYGSGIPYYANSVKGRFTISRDNSKNTLYLQMNSLRAEDTAVYYCARDTPGFDYWGQGTLVTVSS VL: QSVLTQPPSASGTPGQRVTISCTGSSSNIGNNAVNWYQQLPGTAPKLLIYYDYYQSSGVPDRFSGSKSGTSASLAISGLRSEDEADYYCGAWDYSLSAYVFGGGTKLTVLG | 0.28 nM | 5.74e-05 s⁻¹ | 205000 M⁻¹ s⁻¹ | – | – | –
#9104a-D7 (antibody, human IgG4 S228P, lambda, V domains shown, VH of #9104v-H31 with VL of #9104v-L64; full-length IgG, lambda) VH: EVQLLESGGGLVQPGGSLRLSCAASGFTFSNYYMSWVRQAPGKGLEWVSGVYYGSGTPYYADSVKGRFTISRDNSKNTLYLQMNSLRAEDTAVYYCARDTPGFDYWGQGTLVTVSS VL: QSVLTQPPSASGTPGQRVTISCTGSSSNIGNNAVNWYQQLPGTAPKLLIYYDYFSHSGVPDRFSGSKSGTSASLAISGLRSEDEADYYCGAWDYSLSAYVFGGGTKLTVLG | 0.198 nM | 5.69e-05 s⁻¹ | 288000 M⁻¹ s⁻¹ | – | – | –
#9104a-E7 (antibody, human IgG4 S228P, lambda, V domains shown, VH of #9104v-H31 with VL of #9104v-L65; full-length IgG, lambda) VH: EVQLLESGGGLVQPGGSLRLSCAASGFTFSNYYMSWVRQAPGKGLEWVSGVYYGSGTPYYADSVKGRFTISRDNSKNTLYLQMNSLRAEDTAVYYCARDTPGFDYWGQGTLVTVSS VL: QSVLTQPPSASGTPGQRVTISCTGSSSNIGNNAVNWYQQLPGTAPKLLIYYDYYQSSGVPDRFSGSKSGTSASLAISGLRSEDEADYYCGAWDYSLSAYVFGGGTKLTVLG | 0.211 nM | 4.59e-05 s⁻¹ | 218000 M⁻¹ s⁻¹ | – | – | –
#9104a-E1 (antibody, human IgG4 S228P, lambda, V domains shown, VH of #9104v-H10 with VL of #9104v-L65; full-length IgG, lambda) VH: EVQLLESGGGLVQPGGSLRLSCAASGFTFSNYYMSWVRQAPGKGLEWVSGIYYGNGIPYYADSVKDRFTISRDNSKNTLYLQMNSLRAEDTAVYYCARDTPGFDYWGQGTLVTVSS VL: QSVLTQPPSASGTPGQRVTISCTGSSSNIGNNAVNWYQQLPGTAPKLLIYYDYYQSSGVPDRFSGSKSGTSASLAISGLRSEDEADYYCGAWDYSLSAYVFGGGTKLTVLG | 0.289 nM | 6.21e-05 s⁻¹ | 215000 M⁻¹ s⁻¹ | – | – | –
#9104a-E4 (antibody, human IgG4 S228P, lambda, V domains shown, VH of #9104v-H17 with VL of #9104v-L65; full-length IgG, lambda) VH: EVQLLESGGGLVQPGGSLRLSCAASGFTFSNYYMSWVRRAPGKGLEWVSGIYYGSGTPYYAASVKGRFTISRDNSKNTLYLQMNSLRAEDTAVYYCARDTPGFDYWGQGTLVTVSS VL: QSVLTQPPSASGTPGQRVTISCTGSSSNIGNNAVNWYQQLPGTAPKLLIYYDYYQSSGVPDRFSGSKSGTSASLAISGLRSEDEADYYCGAWDYSLSAYVFGGGTKLTVLG | 0.197 nM | 4.15e-05 s⁻¹ | 210000 M⁻¹ s⁻¹ | – | – | –
#9104v-L11 (antibody, human IgG4 S228P, lambda, V domains shown, Full-length IgG, lambda) VH: EVQLLESGGGLVQPGGSLRLSCAASGFTFSNYYMSWVRQAPGKGLEWVSGIYYGSGNIYYADSVKGRFTISRDNSKNTLYLQMNSLRAEDTAVYYCARDTPGFDYWGQGTLVTVSS VL: QSVLTQPPSASGTPGQRVTISCTGSSSNIGNNAVNWYQQLPGTAPKLLIYYDIFQPSGVPDRFSGSKSGTSASLAISGLRSEDEADYYCGAWDYSLSAYVFGGGTKLTVLG | – | – | – | 0.768 nM | 0.000199 s⁻¹ | 259000 M⁻¹ s⁻¹
#9104a-E5 (antibody, human IgG4 S228P, lambda, V domains shown, VH of #9104v-H19 with VL of #9104v-L65; full-length IgG, lambda) VH: EVQLLESGGGLVQPGGSLRLSCAASGFTFSNYYMSWVRQAPGKGLEWVSGIYYGSGVPYYADSVKGRFTISRDNSKNTLYLQMNSLRAEDTAVYYCARDTPGFDYWGQGTLVTVSS VL: QSVLTQPPSASGTPGQRVTISCTGSSSNIGNNAVNWYQQLPGTAPKLLIYYDYYQSSGVPDRFSGSKSGTSASLAISGLRSEDEADYYCGAWDYSLSAYVFGGGTKLTVLG | 0.273 nM | 6.36e-05 s⁻¹ | 234000 M⁻¹ s⁻¹ | – | – | –
#9104a-E6 (antibody, human IgG4 S228P, lambda, V domains shown, VH of #9104v-H27 with VL of #9104v-L65; full-length IgG, lambda) VH: EVQLLESGGGLVQPGGSLRLSCAASGFTFSNYYMSWVRQAPGKGLEWVSGTYYDSGYVYYADSVKGRFTISRDNSKNTLYLQMNSLRAEDTAVYYCARDTPGFDYWGQGTLVTVSS VL: QSVLTQPPSASGTPGQRVTISCTGSSSNIGNNAVNWYQQLPGTAPKLLIYYDYYQSSGVPDRFSGSKSGTSASLAISGLRSEDEADYYCGAWDYSLSAYVFGGGTKLTVLG | 1.19 nM | 7.77e-05 s⁻¹ | 65500 M⁻¹ s⁻¹ | – | – | –
#9104v-L12 (antibody, human IgG4 S228P, lambda, V domains shown, Full-length IgG, lambda) VH: EVQLLESGGGLVQPGGSLRLSCAASGFTFSNYYMSWVRQAPGKGLEWVSGIYYGSGNIYYADSVKGRFTISRDNSKNTLYLQMNSLRAEDTAVYYCARDTPGFDYWGQGTLVTVSS VL: QSVLTQPPSASGTPGQRVTISCTGSSSNIGNNAVNWYQQLPGTAPKLLIYYDIFRPDGVPDRFSGSKSGTSASLAISGLRSEDEADYYCGAWDYSLSAYVFGGGTKLTVLG | – | – | – | 0.718 nM | 0.000159 s⁻¹ | 221000 M⁻¹ s⁻¹
#9104a-D8 (antibody, human IgG4 S228P, lambda, V domains shown, VH of #9104v-H33 with VL of #9104v-L64; full-length IgG, lambda) VH: EVQLLESGGGLVQPGGSLRLSCAASGFTFSNYYMSWVRQAPGKGLEWVSGVYYPSGNPYYADSVKGRFTISRDNSKNTLYLQMNSLRAEDTAVYYCARDTPGFDYWGQGTLVTVSS VL: QSVLTQPPSASGTPGQRVTISCTGSSSNIGNNAVNWYQQLPGTAPKLLIYYDYFSHSGVPDRFSGSKSGTSASLAISGLRSEDEADYYCGAWDYSLSAYVFGGGTKLTVLG | 0.177 nM | 3.33e-05 s⁻¹ | 188000 M⁻¹ s⁻¹ | – | – | –
#9104v-L19 (antibody, human IgG4 S228P, lambda, V domains shown, Full-length IgG, lambda) VH: EVQLLESGGGLVQPGGSLRLSCAASGFTFSNYYMSWVRQAPGKGLEWVSGIYYGSGNIYYADSVKGRFTISRDNSKNTLYLQMNSLRAEDTAVYYCARDTPGFDYWGQGTLVTVSS VL: QSVLTQPPSASGTPGQRVTISCTGSSSNIGNNAVNWYQQLPGTAPKLLIYYDLFRPSGVPDRFSGSKSGTSASLAISGLRSEDEADYYCGAWDYSLSAYVFGGGTKLTVLG | – | – | – | 1.03 nM | 0.000238 s⁻¹ | 231000 M⁻¹ s⁻¹
#9104a-E8 (antibody, human IgG4 S228P, lambda, V domains shown, VH of #9104v-H33 with VL of #9104v-L65; full-length IgG, lambda) VH: EVQLLESGGGLVQPGGSLRLSCAASGFTFSNYYMSWVRQAPGKGLEWVSGVYYPSGNPYYADSVKGRFTISRDNSKNTLYLQMNSLRAEDTAVYYCARDTPGFDYWGQGTLVTVSS VL: QSVLTQPPSASGTPGQRVTISCTGSSSNIGNNAVNWYQQLPGTAPKLLIYYDYYQSSGVPDRFSGSKSGTSASLAISGLRSEDEADYYCGAWDYSLSAYVFGGGTKLTVLG | 0.38 nM | 5.66e-05 s⁻¹ | 149000 M⁻¹ s⁻¹ | – | – | –
#9104v-L15 (antibody, human IgG4 S228P, lambda, V domains shown, Full-length IgG, lambda) VH: EVQLLESGGGLVQPGGSLRLSCAASGFTFSNYYMSWVRQAPGKGLEWVSGIYYGSGNIYYADSVKGRFTISRDNSKNTLYLQMNSLRAEDTAVYYCARDTPGFDYWGQGTLVTVSS VL: QSVLTQPPSASGTPGQRVTISCTGSSSNIGNNAVNWYQQLPGTAPKLLIYYDIHRPYGVPDRFSGSKSGTSASLAISGLRSEDEADYYCGAWDYSLSAYVFGGGTKLTVLG | – | – | – | 0.992 nM | 0.000273 s⁻¹ | 275000 M⁻¹ s⁻¹
